# Source: the supplement of paper PMC9732359
# ± gives the uncertainty stated by the source.
# Test: protein stability index of a GFP-peptide fusion (yeast GPS) (PSI 1-4); higher = more stable; sorted into four equal gates, so the index is relative within each strain
# Method in brief: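 For each peptide, the protein stability index sums the read frequency in every gate after multiplying it by the gate number. Read frequencies came from plasmids that were PCR-amplified from each gate and Illumina-sequenced, with reads assigned to strains by barcodes. The gates were four equal bins of GFP/Cherry fluorescence ratio applied to mid-log yeast in leucine-free medium carrying a pooled library of tiled 17-residue yeast protein peptides fused downstream of GFP on a Cherry-expressing plasmid.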
sequence,measurement,setting,value
MTAAVTSSNIVLETHES [RPT6],protein stability index,doa10∆,2.65 ± 0.094
same,protein stability index,pdr5∆,2.78 ± 0.057
same,protein stability index,san1∆,2.79 ± 0.081
same,protein stability index,ubr1∆,2.48 ± 0.059
GSELSSKIRKIHIQETQ [SIR3],protein stability index,doa10∆,2.61 ± 0.069
same,protein stability index,pdr5∆,2.54 ± 0.084
same,protein stability index,san1∆,2.58 ± 0.075
same,protein stability index,ubr1∆,2.68 ± 0.056
EESLTVLNCLRTMYFIL [YJR042W/NUP85],protein stability index,doa10∆,2.54 ± 0.11
same,protein stability index,pdr5∆,1.83 ± 0.081
same,protein stability index,san1∆,1.38 ± 0.098
same,protein stability index,ubr1∆,1.57 ± 0.068
EKTFLHLPCTIEAEEAE [RPN8],protein stability index,doa10∆,1.56 ± 0.078
same,protein stability index,pdr5∆,2.05 ± 0.071
same,protein stability index,san1∆,2.48 ± 0.12
same,protein stability index,ubr1∆,2.48 ± 0.07
EERMGQIENLNEVCLEK [SMC4],protein stability index,doa10∆,3.48 ± 0.28
same,protein stability index,san1∆,2.47 ± 0.27
EAHNKALNQFKRKLLEH [RPT4],protein stability index,doa10∆,3.32 ± 0.27
same,protein stability index,pdr5∆,3.14 ± 0.17
same,protein stability index,san1∆,3.46 ± 0.12
same,protein stability index,ubr1∆,3.4 ± 0.15
QEQLKQMDQQLQYTALT [ARP7],protein stability index,doa10∆,2.71 ± 0.16
same,protein stability index,pdr5∆,2.67 ± 0.25
same,protein stability index,san1∆,2.55 ± 0.2
same,protein stability index,ubr1∆,3 ± 0.18
LLKHPFKAIHGSQLRLS [YCS4],protein stability index,doa10∆,1.67 ± 0.046
same,protein stability index,pdr5∆,1.62 ± 0.043
same,protein stability index,san1∆,1.64 ± 0.072
same,protein stability index,ubr1∆,1.83 ± 0.025
EGYQNDINTIKLQLSFV [SRP72],protein stability index,doa10∆,3.12 ± 0.21
same,protein stability index,pdr5∆,2.73 ± 0.088
same,protein stability index,san1∆,2.1 ± 0.26
same,protein stability index,ubr1∆,3.07 ± 0.14
DVSVKMGNTKVHCRISC [RRP45],protein stability index,doa10∆,2.21 ± 0.14
same,protein stability index,pdr5∆,2.28 ± 0.092
same,protein stability index,san1∆,2.17 ± 0.061
same,protein stability index,ubr1∆,2.09 ± 0.074
VVLSFSGLNADSRILIE [PRE6],protein stability index,doa10∆,2.87 ± 0.15
same,protein stability index,pdr5∆,3.26 ± 0.2
same,protein stability index,san1∆,3.19 ± 0.072
same,protein stability index,ubr1∆,3.3 ± 0.13
SVLNPFLLRRVKADVEK [ISW2],protein stability index,doa10∆,1.15 ± 0.14
same,protein stability index,pdr5∆,1.09 ± 0.068
same,protein stability index,san1∆,1.18 ± 0.15
same,protein stability index,ubr1∆,1.31 ± 0.12
GAKPAGSTGGLGASFGQ [YGL172W/NUP49],protein stability index,doa10∆,3.38 ± 0.14
same,protein stability index,pdr5∆,3.41 ± 0.24
same,protein stability index,san1∆,3.22 ± 0.11
same,protein stability index,ubr1∆,3.54 ± 0.071
VDVNNKFIALCEQQPSQ [SIN4],protein stability index,doa10∆,2.82 ± 0.051
same,protein stability index,pdr5∆,2.96 ± 0.05
same,protein stability index,san1∆,3.18 ± 0.052
same,protein stability index,ubr1∆,3 ± 0.059
EEVQQAQTEIKLFNKWS [RPS5],protein stability index,doa10∆,3.17 ± 0.1
same,protein stability index,pdr5∆,3.21 ± 0.096
same,protein stability index,san1∆,3.25 ± 0.076
same,protein stability index,ubr1∆,3.27 ± 0.075
FELIELVTPKSFLFDVL [NUT1],protein stability index,doa10∆,1.92 ± 0.25
same,protein stability index,san1∆,1.08 ± 0.16
same,protein stability index,ubr1∆,1.06 ± 0.12
NDNYSSDMENDNLLLNL [REC8],protein stability index,doa10∆,2.9 ± 0.09
same,protein stability index,pdr5∆,2.96 ± 0.12
same,protein stability index,san1∆,2.82 ± 0.1
same,protein stability index,ubr1∆,3.09 ± 0.12
IQQHARYDCSFCGKKTV [RPL43A],protein stability index,doa10∆,2.71 ± 0.23
same,protein stability index,pdr5∆,2.94 ± 0.1
same,protein stability index,san1∆,2.81 ± 0.065
same,protein stability index,ubr1∆,3.06 ± 0.066
ISAFTQFLRLIFVSILS [ARP9],protein stability index,doa10∆,2.17 ± 0.065
same,protein stability index,pdr5∆,1.88 ± 0.1
same,protein stability index,san1∆,2.9 ± 0.12
same,protein stability index,ubr1∆,1.22 ± 0.027
VHPDYLYGAITEDRYNE [FAS2],protein stability index,doa10∆,1.08 ± 0.092
same,protein stability index,pdr5∆,1.34 ± 0.097
same,protein stability index,san1∆,1.14 ± 0.15
same,protein stability index,ubr1∆,1.27 ± 0.086
NSKPVELKPVSLDNKTL [YJL041W/NSP1],protein stability index,doa10∆,2.8 ± 0.055
same,protein stability index,pdr5∆,2.75 ± 0.059
same,protein stability index,san1∆,2.69 ± 0.076
same,protein stability index,ubr1∆,2.58 ± 0.064
YGRKSFRNNKNDNYSSD [REC8],protein stability index,doa10∆,3.28 ± 0.096
same,protein stability index,pdr5∆,3.22 ± 0.068
same,protein stability index,san1∆,3.32 ± 0.05
same,protein stability index,ubr1∆,3.14 ± 0.059
QLVEITEQIKMRILSND [SRB8],protein stability index,doa10∆,2.49 ± 0.045
same,protein stability index,pdr5∆,2.45 ± 0.043
same,protein stability index,san1∆,2.44 ± 0.043
same,protein stability index,ubr1∆,2.48 ± 0.034
SLVFNRKLAVERAGHLL [PRE5],protein stability index,doa10∆,2.08 ± 0.2
same,protein stability index,pdr5∆,1.5 ± 0.18
same,protein stability index,san1∆,1.43 ± 0.19
same,protein stability index,ubr1∆,1.71 ± 0.21
SVKPHVVEPEHMADAKI [SIR4],protein stability index,doa10∆,2.68 ± 0.14
same,protein stability index,pdr5∆,2.92 ± 0.14
same,protein stability index,san1∆,3.1 ± 0.1
same,protein stability index,ubr1∆,3 ± 0.17
EIEQVCKQVHDKLTSIQ [MED7],protein stability index,doa10∆,2.92 ± 0.067
same,protein stability index,pdr5∆,3.23 ± 0.04
same,protein stability index,san1∆,2.92 ± 0.06
same,protein stability index,ubr1∆,2.89 ± 0.055
VRNLQGIQEVVHNTNSF [NUT1],protein stability index,doa10∆,2.98 ± 0.079
same,protein stability index,pdr5∆,3.15 ± 0.068
same,protein stability index,san1∆,2.94 ± 0.063
same,protein stability index,ubr1∆,3.17 ± 0.063
